From US20180258181A1
Substitutions are numbered along the chain they refer to.

B1: MOR06626 IgG (antibody, V domains shown)
VH: QVQLVQSGAEVKKPGASVKVSCKASGYTFTGNYINWVRQAPGQGLEWMGIINPTKGWTLYAQKFQGRVTMTRDTSISTAYMELSSLRSEDTAVYYCARWHHGTWIFDYWGQGTLVTVSS
VL: DIVLTQPPSVSGAPGQRVTISCSGSSSNIGSNYVSWYQQLPGTAPKLLIYNDNQRPSGVPDRFSGSKSGTSASLAITGLQSEDEADYYCSTYDRRTFSVFGGGTKLTVLG
B2: MOR06657 IgG (antibody, V domains shown)
VH: QVQLVQSGAEVKKPGSSVKVSCKASGGTFSSYYFSWVRQAPGQGLEWMGGIIPKFGSANYAQKFQGRVTITADESTSTAYMELSSLRSEDTAVYYCARRTSMDYWGQGTLVTVSS
VL: DIALTQPASVSGSPGQSITISCTGTSSDVGGYNYVSWYQQHPGKAPKLMIYSVSKRPSGVSNRFSGSKSGNTASLTISGLQAEDEADYYCATWDHSQMGKVFGGGTKLTVLG
B3: MOR06631 IgG (antibody, V domains shown)
VH: QVQLVQSGAEVKKPGESLKISCKGSGYSFTNYWIGWVRQMPGKGLEWMGFIWPVDSWTQYSPSFQGQVTISADKSISTAYLQWSSLKASDTAMYYCARYGHGMYGGALDVWGQGTLVTVSS
VL: DIVLTQSPATLSLSPGERATLSCRASQSVRSSRLAWYQQKPGQAPRLLIYGASKRATGVPARFSGSGSGTDFTLTISSLEPEDFATYYCQQYYDFPPTFGQGTKVEIKR
B4: MOR06669 IgG (antibody, V domains shown)
VH: B3 VH with F50I, V54I, W57F
VL: B3 VL
B5: MOR07111 IgG (antibody, V domains shown)
VH: B3 VH with F50V, W52M, V54S, W57Y, Q59R
VL: B3 VL with T86V, Y92F, D94S, F95K, P97I
B6: MOR06638 IgG (antibody, V domains shown)
VH: B1 VH with T54H, K55G, W57D, L59K
VL: DIVLTQPPSVSGAPGQRVTISCSGSSSNIGSNYVSWYQQLPGTAPKLLIYNDNQRPSGVPDRFSGSKSGTSASLAITGLQSEDEADYYCSSWDRADGSYVFGGGTKLTVLG

Target: mesothelin on OVCAR-3 cells (UniProt Q13421)
Test: FACS titration, IgG on OVCAR-3 cells

Q: With B1 as the binder, how does the EC50 read?
A: 9.68 nM

Q: With B2 as the binder, how does the EC50 read?
A: 0.53 nM

Target: mesothelin on OVCAR-3 cells (UniProt Q13421)
Test: FACS titration, EC50 on OVCAR-3 against EC50 on NCI-H226

Q: With B3 as the binder, how does the x-fold different EC50 on OVCAR-3 vs. NCI-H226 read?
A: 0.5 fold

Q: Which x-fold different EC50 on OVCAR-3 vs. NCI-H226 does the source give for B4 here?
A: 3.4 fold

Q: How did the x-fold different EC50 on OVCAR-3 vs. NCI-H226 turn out when B5 was run?
A: 1.7 fold

Q: Which x-fold different EC50 on OVCAR-3 vs. NCI-H226 does the source give for B1 here?
A: 22 fold

Q: Which x-fold different EC50 on OVCAR-3 vs. NCI-H226 does the source give for B6 here?
A: 22.1 fold

Q: For B2, which x-fold different EC50 on OVCAR-3 vs. NCI-H226 is on record?
A: 14 fold
